From paper PMC11425648

Target: free UbcH8 (Ube2L6), GST tag removed (human)
Experiment: SAXS; free UbcH8 (GST removed) at 300 μM, 10 °C, six 10-min frames; dimer crystal structure 1WZV fitted to the dummy atom model

stoichiometry N: 2
Substance: free UbcH8 (Ube2L6), GST tag removed (enzyme)
